Data taken from patent publication US20020045158, “Cells for drug discovery” (published 2002).

Key:
[1] = tested on: SP-1 zinc finger domain (Homo sapiens); assay: EMSA; conditions: target sequence not given
Zif268 = assay: EMSA; conditions: target sequence not given; literature 2-30 nM; cited from earlier work
VEGF3a/1 six-finger ZFP = target: T1, VEGF3a/1 six-finger ZFP (artificial (human SP-1 backbone)); assay: competition; half-life of complex relative to VEGF1, EMSA competition at 37 C; conditions: tags: MBP N-terminal fusion; label: 5' 32P
T1 chain: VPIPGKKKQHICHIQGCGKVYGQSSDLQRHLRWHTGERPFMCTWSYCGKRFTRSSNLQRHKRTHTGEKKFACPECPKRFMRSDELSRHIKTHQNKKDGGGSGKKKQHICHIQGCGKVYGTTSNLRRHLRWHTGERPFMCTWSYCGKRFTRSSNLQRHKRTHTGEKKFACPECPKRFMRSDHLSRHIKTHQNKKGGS
Experimental: For the EMSA studies, 20 μl binding reactions contained 10 fmole (0.5 nM) 5′ ³²P-labeled double-stranded target DNA, 35 mM Tris HCl (pH 7.8), 100 mM KCl, 1 mM MgCl₂, 5 mM dithiothreitol, 10% glycerol, 20 μg/ml poly dI-dC, 200 μg/ml bovine serum albumin, and 25 μM ZnCl₂. Protein was added as one fifth volume from a 3-fold dilution series. Binding was allowed to proceed for 60 min at either room temperature or 37° C. Polyacrylamide gel electrophoresis was carried out at room temperature or 37° C. using precast 10% or 10-20% Tris-HCl gels (BioRad) and standard Tris-Glycine running buffer. The room temperature assays yielded an apparent Kd for this VEGF3a/1 protein of approximately 1.5 nM. Thus, the 18-bp binding ZFP bound with high affinity to its target site. […] When binding and electrophoresis were performed at 37° C., the apparent Kd of VEGF3a/1 was approximately 9 nM when tested against the 18-bp target, compared to a Kd of 40 nM for VEGF1 tested against its target.
The apparent Kd is a useful measure of the affinity of a protein for its DNA target. However, for a DNA binding site either in vitro or in vivo, its occupancy is determined to a large extent by the off-rate of the DNA-binding protein. This parameter can be measured by competition experiments. The conditions for EMSA were as described above; binding and electrophoresis were performed at 37° C. […]

ZFP3A-VP16 / KRAB-ZFP3A = target: T2, ZFP3A-VP16 / KRAB-ZFP3A (artificial, UniProt P08047); assay: cell_activity; VP16 fusion on cotransfected reporter; KRAB fusion lowered hKCa4 conductance to 1.0 nS vs 10.0 for empty vector; conditions: tags: VP16 or KRAB fusion
T2 chain: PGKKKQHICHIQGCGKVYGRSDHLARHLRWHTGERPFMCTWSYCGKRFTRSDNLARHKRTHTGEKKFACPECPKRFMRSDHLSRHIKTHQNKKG

## SP-1 target site
[1]
  Kd: 65 nM

## Zif268 target site
Zif268
  Kd: 60 nM

B1: VEGF 18-bp target JVF9/JVF10 (dsDNA)
DNA 1: AGCGAGCGGGGAGGATCGCGGAGGCTTGGGGCAGCCGGGTAG
DNA 2: CGCTCTACCCGGCTGCCCCAAGCCTCCGCGATCCTCCCCGCT
VEGF3a/1 six-finger ZFP
  binding signal: > 10 fold

B2: hKCa4 target site (dsDNA)
DNA 1: GGGGAGGGC
DNA 2: GCCCTCCCC
ZFP3A-VP16 / KRAB-ZFP3A
  activity: > 5 fold activation
